{"source": "paper PMC3794917", "system": "Rad51", "test": "EM", "conditions": "RPA pre-bound to ssDNA, no Rad52, 60 mM NaCl; all filaments complete; Rad52 EMSA: 10 mM Tris-HCl pH 8, 5 mM MgCl2, 100 mM NaCl, 37 C, 10 min, 0.27 uM XV2, 8% native PAGE; filament assays: SEB buffer, 60 mM NaCl (or titrated) …", "data": [{"substance": "400-nt ssDNA fragment", "values": [{"measurement": "binding signal (% of Rad51 filaments formed)", "value": 12.5}]}]}
